According to publication PMC2635478 (Traffic (Copenhagen, Denmark), 2008):
Read-outs that look alike come from different tables or passages of the source.

Experiments:
SEC [1] = target: the molecule itself; assay: SEC
SEC [2] = target: the molecule itself; assay: SEC; remark: listed apart in the source

| Protein | stoichiometry N (SEC [1]) | stoichiometry N (SEC [2]) |
| --- | --- | --- |
| NEM-modified PITPβ (phosphatidylinositol transfer protein beta) in cytosol of NEM-treated HL60 cells (natural protein, human (endogenous in HL60), UniProt P48739 1-271, looked up, C95 alkylated by N-ethylmaleimide (NEM)) MVLIKEFRVVLPCSVQEYQVGQLYSVAEASKNETGGGEGIEVLKNEPYEKDGEKGQYTHKIYHLKSKVPAFVRMIAPEGSLVFHEKAWNAYPYCRTIVTNEYMKDDFFIKIETWHKPDLGTLENVHGLDPNTWKTVEIVHIDIADRSQVEPADYKADEDPALFQSVKTKRGPLGPNWKKELANSPDCPQMCAYKLVTIKFKWWGLQSKVENFIQKQEKRIFTNFHRQLFCWIDKWIDLTMEDIRRMEDETQKELETMRKRGSVRGTSAADV | 2 | – |
| NEM-modified PITPβ (phosphatidylinositol transfer protein beta) in cytosol of NEM-treated PC12 cells (natural protein, rat (endogenous in PC12), UniProt P53812 1-271, looked up, C95 alkylated by N-ethylmaleimide (NEM)) MVLIKEFRVVLPCSVQEYQVGQLYSVAEASKNETGGGEGIEVLKNEPYENDGEKGQYTHKIYHLKSKVPAFVRMIAPEGSLVFHEKAWNAYPYCRTIVTNEYMKDDFFIKIETWHKPDLGTLENVHGLDPNTWKTVEIVHIDIADRSQVEPADYKADEDPALFQSVKTKRGPLGPNWKKELANTPDCPKMCAYKLVTIKFKWWGLQSKVENFIQKQEKRIFTNLHRQLFCWIDKWIDLTMEDIRRMEDETQKELETMRKKGSVRGTSAADA | – | 2 |
